Paper PMC6554060 (Journal of molecular biology, 2019)

Target: His6-tagged WT-αSyn (human, UniProt P37840 1-140)
Experiment: BLI

B1: E234G/H363A-HYPE (enzyme)
chain: GKLEARAALNQALEMKRQGKREKAQKLFMHALKMDPDFVDALTEFGIFSEEDKDIIQADYLYTRALTISPYHEKALVNRDRTLPLVEEIDQRYFSIIDSKVKKVMSIPKGNSALRRVMEETYYHHIYHTVAIGGNTLTLSEIRHILETRYAVPGKSLEEQNEVIGMHAAMKYINTTLVSRIGSVTISDVLEIHRRVLGYVDPVEAGRFRTTQVLVGHHIPPHPQDVEKQMQEFVQWLNSEEAMNLHPVEFAALAHYKLVYIAPFIDGNGRTSRLLMNLILMQAGYPPITIRKEQRSDYYHVLEAANEGDVRPFIRFIAKCTETTLDTLLFATTEYSVALPEAQPNHSGFKETLPVKP
With B1 the Kd was 15.3 µM.
